Assay results taken from article PMC9758184.
Where two headings read alike, the source gives them in different places. Each block holds one substance with its values, some of them ahead of it.

Assays:
Assay in all cases: SEC; Superdex 200 HR 10/30, cold 1x PBS pH 7.2; native size of each protein from its own elution volume against size standards, dark- or light-incubated (same result in both); PmSB-LOV C53A run only in the mixture with PmlR2
[1] = biological target: PmSB-LOV (Pseudomonas mendocina Sensory box-LOV), wild-type tag-free recombinant protein (Pseudomonas mendocina NBRC 14162)
[2] = biological target: PmSB-LOV (Pseudomonas mendocina Sensory box-LOV), wild-type tag-free recombinant protein (Pseudomonas mendocina NBRC 14162); remark: listed apart in the source
[3] = biological target: PmlR2 (Pseudomonas mendocina light-inducible transcriptional regulator), tag-free recombinant protein (Pseudomonas mendocina NBRC 14162)
[4] = biological target: PmlR2-N (1-113 aa), tag-free recombinant protein containing only the HTH DNA-binding domain (Pseudomonas mendocina NBRC 14162)

stoichiometry N [1]: 3
stoichiometry N [2]: 2
Substance: PmSB-LOV (Pseudomonas mendocina Sensory box-LOV), wild-type tag-free recombinant protein (natural protein)

stoichiometry N [3]: 6
Substance: PmlR2 (Pseudomonas mendocina light-inducible transcriptional regulator), tag-free recombinant protein (natural protein)

stoichiometry N [4]: 2
Substance: PmlR2-N (1-113 aa), tag-free recombinant protein containing only the HTH DNA-binding domain (domain or fragment)
